Assay results published in patent US20220194996A1.

B1: Pro(Flex2)-6C fusion protein, produced in L. lactis (protein)
chain: EYVDEKERQGEIYPFGDEEEKDEGGESFTYEKSEVDKTDLFKFIEGGEGDDVYKVDGSKVLLDDDTISRVSKKHTARDGEYGEYGEAVEDGENVIKIIRSVLQSGALPSVGVDELDKIDLSYETTESGDTAVSEDSYDKYASNNTNKEGGGGSGGGGSGGGGSEKKVIHGCNFSSNVSSKHTFTDSLDISLVDDSAHISCNVHLSEPKYNHLVGLNCPGDIIPDCFFQVYQPESEELEPSNIVYLDSQINIGDIEYYEDAEGDDKIKLFGIVGSIPKTTSFTCICKKDKKSAYMTVTIDSA
B2: Pro(CsLNK)-6C fusion protein, produced in L. lactis (protein)
chain: EYVDEKERQGEIYPFGDEEEKDEGGESFTYEKSEVDKTDLFKFIEGGEGDDVYKVDGSKVLLDDDTISRVSKKHTARDGEYGEYGEAVEDGENVIKIIRSVLQSGALPSVGVDELDKIDLSYETTESGDTAVSEDSYDKYASNNTNKENMPNDPNRNVDENANANSAVKNNNNEEEKKVIHGCNFSSNVSSKHTFTDSLDISLVDDSAHISCNVHLSEPKYNHLVGLNCPGDIIPDCFFQVYQPESEELEPSNIVYLDSQINIGDIEYYEDAEGDDKIKLFGIVGSIPKTTSFTCICKKDKKSAYMTVTIDSA
B3: Pro(Sol)-6C fusion protein, produced in L. lactis (protein)
chain: EYVDEKERQGEIYPFGDEEEKDEGGESFTYEKSEVDKTDLFKFIEGGEGDDVYKVDGSKVLLDDDTISRVSKKHTARDGEYGEYGEAVEDGENVIKIIRSVLQSGALPSVGVDELDKIDLSYETTESGDTAVSEDSYDKYASNNTNKEKESGSVSSEQLAQFRSLDEKKVIHGCNFSSNVSSKHTFTDSLDISLVDDSAHISCNVHLSEPKYNHLVGLNCPGDIIPDCFFQVYQPESEELEPSNIVYLDSQINIGDIEYYEDAEGDDKIKLFGIVGSIPKTTSFTCICKKDKKSAYMTVTIDSA

Each binder was assayed against rat mAb 45.1 (against Pfs48/45 conformational epitope I).

Q: With B1 as the binder, how does the % of folding read?
A: 100%

Q: Which % of folding does the source give for B2 here?
A: 75%

Q: For B3, which % of folding is on record?
A: 90%
